Laboratory results as given in PMC5318870.

Biological target: T1, RSV attachment glycoprotein G (RSV-G Protein, His Tag) (respiratory syncytial virus) (UniProt O36633)
T1 sequence: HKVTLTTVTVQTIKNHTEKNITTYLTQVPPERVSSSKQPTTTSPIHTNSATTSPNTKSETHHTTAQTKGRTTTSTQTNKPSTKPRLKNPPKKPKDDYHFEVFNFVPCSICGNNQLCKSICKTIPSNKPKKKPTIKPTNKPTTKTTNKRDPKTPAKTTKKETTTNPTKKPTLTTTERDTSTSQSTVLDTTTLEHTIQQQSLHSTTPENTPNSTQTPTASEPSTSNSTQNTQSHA
Assay: fluorescence polarization
Details: FP: PBS pH 7.4, 0.5 nM aptamer; filter binding: PBS, BSA, 0.1% Tween 20, 0.1 ug/ml poly(dIdC), 50 nM aptamer, 20 min RT; ALPHA: HBSS, 1 mg/ml BSA, 0.05 ug/ml …

Q: “TAGGGAAGAGAAGGACATATGATAGTGCGGTGAGCCGTCGGACATACAAATACTTGACTAGTACATGACCACTTGA [H8 (Alexa Fluor 488)]” was tested. Which Kd did it give?
A: Its Kd is 0.03 µM.
